Assay: Atomic force microscopy studies for fibrillation (glucagon)
Type: physicochemical
Conditions: 287 mM, Milli-Q water pH 2, 37° C., 4 days
Procedure: For atomic force microscopy experiments, 287 mM solutions of glucagon and glycoglucagon prepared by dissolving each of glucagon and glycoglucagon obtained in Example 9 in Milli-Q water, adjusted to pH 2 with HCl were incubated at 37° C. for four days. Topographic images of glucagon aggregates were collected with a Dimension iCon Atomic Force Microscopy (Bruker, Billerica, MA, USA). Tapping mode atomic force microscopy (AFM) images were recorded using silicon cantilevers (model RTESPA, Veeco, Santa Barbara, CA) with resonance frequency ˜300 kHz, nominal tip radius 8 nm and nominal spring constant 42 N/m.
Representative AFM height images are shown in FIG. 11, of (A) glucagon (287 mM) and (B) glycoglucagon (287 mM) incubated at 37° C. for 4 days. The vertical colour scale is (A) 6 nm and (B) 3 nm. Scan size: 10×5 μm^2. Each of the images of FIG. 11 are representative of 3-5 scans at different locations with varying scan sizes from 1-10 micron.

Substance: native glucagon: human glucagon peptide (SEQ ID NO:5), synthesised by solid phase synthesis [reference compound]
- fibril formation (AFM): forms fibrils
